According to publication PMC7234994, “Structural insights into the inhibition mechanism of human sterol O-acyltransferase 1 by a competitive inhibitor” (Nature Communications, 2020):

How the values were obtained:
[1] = molecular target: the molecule itself; assay: SEC; fluorescence-detection SEC (FSEC) of N-terminal GFP-tagged hSOAT1 solubilized in detergent micelles; elution compared with dimeric mouse TPC1 (189 kDa)
[2] = molecular target: the molecule itself; assay: cryo-EM structure; hSOAT1 66-550 in nanodisc (MSP2X) with inhibitor CI-976; 3.5 Å, C2 symmetry
[3] = molecular target: the molecule itself; assay: cryo-EM structure; hSOAT1 full length in detergent micelles with CI-976; one 3D class refined to 12 Å

Protein	stoichiometry N [1]	other results
N-terminal GFP-tagged N-terminal truncated human SOAT1 (66-550) (domain or fragment, UniProt P35610 66-550, looked up, human sterol O-acyltransferase 1 (SOAT1), residues 66-550 (N-terminal tetramerization domain deleted); also called hSOAT1 dimer; SOAT1-dimer (66-550); source: HEK293F, transfected, solubilized with 1% GDN (supernatant, not purified); not shown: GFP, N-terminal, kept) MKEVGSHFDDFVTNLIEKSASLDNGGCALTTFSVLEGEKNNHRAKDLRAPPEQGKIFIARRSLLDELLEVDHIRTIYHMFIALLILFILSTLVVDYIDEGRLVLEFSLLSYAFGKFPTVVWTWWIMFLSTFSVPYFLFQHWATGYSKSSHPLIRSLFHGFLFMIFQIGVLGFGPTYVVLAYTLPPASRFIIIFEQIRFVMKAHSFVRENVPRVLNSAKEKSSTVPIPTVNQYLYFLFAPTLIYRDSYPRNPTVRWGYVAMKFAQVFGCFFYVYYIFERLCAPLFRNIKQEPFSARVLVLCVFNSILPGVLILFLTFFAFLHCWLNAFAEMLRFGDRMFYKDWWNSTSYSNYYRTWNVVVHDWLYYYAYKDFLWFFSKRFKSAAMLAVFAVSAVVHEYALAVCLSFFYPVLFVLFMFFGMAFNFIVNDSRKKPIWNVLMWTSLFLGNGVLLCFYSQEWYARQHCPLKNPTFLDYVRPRSWTCRYVF	2	
human SOAT1 dimer construct (66-550), purified, tags removed (domain or fragment, UniProt P35610 66-550, looked up, human sterol O-acyltransferase 1 (SOAT1), residues 66-550; residues 66-117 invisible in the map; Reconstituted into MSP2X nanodiscs; also called hSOAT1 dimer; hSOAT1 66-550; source: HEK293F, BacMam infected, purified (strep-tactin, PreScission, superose-6); not shown: His7, N-terminal, cleaved; strep, N-terminal, cleaved; GFP, N-terminal, cleaved) MKEVGSHFDDFVTNLIEKSASLDNGGCALTTFSVLEGEKNNHRAKDLRAPPEQGKIFIARRSLLDELLEVDHIRTIYHMFIALLILFILSTLVVDYIDEGRLVLEFSLLSYAFGKFPTVVWTWWIMFLSTFSVPYFLFQHWATGYSKSSHPLIRSLFHGFLFMIFQIGVLGFGPTYVVLAYTLPPASRFIIIFEQIRFVMKAHSFVRENVPRVLNSAKEKSSTVPIPTVNQYLYFLFAPTLIYRDSYPRNPTVRWGYVAMKFAQVFGCFFYVYYIFERLCAPLFRNIKQEPFSARVLVLCVFNSILPGVLILFLTFFAFLHCWLNAFAEMLRFGDRMFYKDWWNSTSYSNYYRTWNVVVHDWLYYYAYKDFLWFFSKRFKSAAMLAVFAVSAVVHEYALAVCLSFFYPVLFVLFMFFGMAFNFIVNDSRKKPIWNVLMWTSLFLGNGVLLCFYSQEWYARQHCPLKNPTFLDYVRPRSWTCRYVF		stoichiometry N [2]: 2
N-terminal GFP-tagged full-length human SOAT1 (1-550) (enzyme, UniProt P35610 1-550, looked up, human sterol O-acyltransferase 1 (SOAT1), full-length, residues 1-550; BacMam vector with N-terminal His7-strep-GFP tags; detected by GFP fluorescence in FSEC; also called hSOAT1; sterol O-acyltransferase 1; source: solubilized in detergent micelles; not shown: GFP, N-terminal, kept) MVGEEKMSLRNRLSKSRENPEEDEDQRNPAKESLETPSNGRIDIKQLIAKKIKLTAEAEELKPFFMKEVGSHFDDFVTNLIEKSASLDNGGCALTTFSVLEGEKNNHRAKDLRAPPEQGKIFIARRSLLDELLEVDHIRTIYHMFIALLILFILSTLVVDYIDEGRLVLEFSLLSYAFGKFPTVVWTWWIMFLSTFSVPYFLFQHWATGYSKSSHPLIRSLFHGFLFMIFQIGVLGFGPTYVVLAYTLPPASRFIIIFEQIRFVMKAHSFVRENVPRVLNSAKEKSSTVPIPTVNQYLYFLFAPTLIYRDSYPRNPTVRWGYVAMKFAQVFGCFFYVYYIFERLCAPLFRNIKQEPFSARVLVLCVFNSILPGVLILFLTFFAFLHCWLNAFAEMLRFGDRMFYKDWWNSTSYSNYYRTWNVVVHDWLYYYAYKDFLWFFSKRFKSAAMLAVFAVSAVVHEYALAVCLSFFYPVLFVLFMFFGMAFNFIVNDSRKKPIWNVLMWTSLFLGNGVLLCFYSQEWYARQHCPLKNPTFLDYVRPRSWTCRYVF	4	
human SOAT1 full-length (1-550), purified, tags removed (enzyme, UniProt P35610 1-550, looked up, human sterol O-acyltransferase 1 (SOAT1), full-length, residues 1-550; Studied in digitonin/GDN micelles and in MSP2N2 nanodiscs with soybean polar lipids; also called hSOAT1; hSOAT1 tetramer; source: HEK293F, BacMam infected, purified (strep-tactin, PreScission, superose-6); not shown: His7, N-terminal, cleaved; strep, N-terminal, cleaved; GFP, N-terminal, cleaved) MVGEEKMSLRNRLSKSRENPEEDEDQRNPAKESLETPSNGRIDIKQLIAKKIKLTAEAEELKPFFMKEVGSHFDDFVTNLIEKSASLDNGGCALTTFSVLEGEKNNHRAKDLRAPPEQGKIFIARRSLLDELLEVDHIRTIYHMFIALLILFILSTLVVDYIDEGRLVLEFSLLSYAFGKFPTVVWTWWIMFLSTFSVPYFLFQHWATGYSKSSHPLIRSLFHGFLFMIFQIGVLGFGPTYVVLAYTLPPASRFIIIFEQIRFVMKAHSFVRENVPRVLNSAKEKSSTVPIPTVNQYLYFLFAPTLIYRDSYPRNPTVRWGYVAMKFAQVFGCFFYVYYIFERLCAPLFRNIKQEPFSARVLVLCVFNSILPGVLILFLTFFAFLHCWLNAFAEMLRFGDRMFYKDWWNSTSYSNYYRTWNVVVHDWLYYYAYKDFLWFFSKRFKSAAMLAVFAVSAVVHEYALAVCLSFFYPVLFVLFMFFGMAFNFIVNDSRKKPIWNVLMWTSLFLGNGVLLCFYSQEWYARQHCPLKNPTFLDYVRPRSWTCRYVF		stoichiometry N [3]: 4
